Measurements reported in patent US20220098252, “INHIBITOR OF DUX4 AND USES THEREOF” (OSPEDALE SAN RAFFAELE S.R.L., published 2022).

Tests used:
MATR3 fragment 1-287 = biological target: T1, MATR3 fragment 1-287 (Homo sapiens, UniProt P43243 SEQ:1-287); experiment: EMSA; MATR3 1-287 alone unable to bind DNA; lacks nucleic acid binding domains; conditions: tags: GST (pGEX2tk)
T1 sequence: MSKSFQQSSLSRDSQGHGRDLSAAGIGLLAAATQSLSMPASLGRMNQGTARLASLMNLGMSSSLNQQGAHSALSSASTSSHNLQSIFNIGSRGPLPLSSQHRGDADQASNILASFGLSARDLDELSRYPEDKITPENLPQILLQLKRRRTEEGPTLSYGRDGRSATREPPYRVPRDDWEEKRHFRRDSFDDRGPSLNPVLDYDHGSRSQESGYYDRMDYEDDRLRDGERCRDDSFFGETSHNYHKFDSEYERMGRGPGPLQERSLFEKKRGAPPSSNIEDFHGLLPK
Description: (§1) Twenty femtomoles of probes were incubated with 15 pmol of in vitro purified 6xHis DUX4 dbd and/or GST-MATR3 1-287 proteins in the presence of 1 μg of poly(dI:dC) and 5 μg of salmon sperm DNA in a buffer containing 10 mM Tris, pH 7.5, 0.1 mM EDTA, 1 mM DTT, 100 mM KCl, 3 mM MgCl2, 12% glycerol.
(§2) After 2 h incubation at RT, DNA-protein complexes were separated by electrophoresis in 8% (w/v) acrylamide gels formed in 0.5×TBE (Sigma-Aldrich) and run in the same buffer at 5 mA at 4° C. Then, the gels were transferred on a Biodyne nylon membrane (Thermo Scientific) at 380 mA for 45 min at 4° C. The membrane was crosslinked at 120 mJ/cm2 with an UV-Stratalinker and the biotin-labelled DNA was detected by chemiluminescence using the LightShift Chemiluminescent EMSA Kit (Thermo Scientific) following the manufacturer's protocol.

[1] = biological target: DUX4 DNA-binding domain (dbd) (Homo sapiens, UniProt Q6RFH8 SEQ:1-150); experiment: EMSA; binding inhibited by recombinant MATR3 1-287; conditions: tags: 6xHis-GB1 (pET-GB1)
DUX4 DNA-binding domain (dbd), sequence (Q6RFH8 1-150): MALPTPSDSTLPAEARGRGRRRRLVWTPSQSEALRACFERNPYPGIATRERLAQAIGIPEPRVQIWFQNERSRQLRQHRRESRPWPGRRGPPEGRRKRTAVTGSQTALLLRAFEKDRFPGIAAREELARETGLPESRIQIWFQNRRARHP
Description: as §1, §2

B1: FRG1 Peak 1 EMSA probe (dsDNA)
DNA 1: AATTGTAGCTATAATTCAATCATCTAAATTG
DNA 2: CAATTTAGATGATTGAATTATAGCTACAATT
MATR3 fragment 1-287
  binding result: no binding
[1]
  binding result: binds
